Experimental findings from patent US20220204643A1 (published 2022) are described below.

The target in one assay is T1, zinc finger protein 8 (human, UniProt P17098 1-575).
T1 construct: on protein array; also called ZNF8
Nature of the assay: protein array.

Assay [1] addresses T2, SATB homeobox 2, transcript variant 2 (human, UniProt Q9UPW6 1-733).
T2 construct: on protein array; also called SATB2
T2 sequence: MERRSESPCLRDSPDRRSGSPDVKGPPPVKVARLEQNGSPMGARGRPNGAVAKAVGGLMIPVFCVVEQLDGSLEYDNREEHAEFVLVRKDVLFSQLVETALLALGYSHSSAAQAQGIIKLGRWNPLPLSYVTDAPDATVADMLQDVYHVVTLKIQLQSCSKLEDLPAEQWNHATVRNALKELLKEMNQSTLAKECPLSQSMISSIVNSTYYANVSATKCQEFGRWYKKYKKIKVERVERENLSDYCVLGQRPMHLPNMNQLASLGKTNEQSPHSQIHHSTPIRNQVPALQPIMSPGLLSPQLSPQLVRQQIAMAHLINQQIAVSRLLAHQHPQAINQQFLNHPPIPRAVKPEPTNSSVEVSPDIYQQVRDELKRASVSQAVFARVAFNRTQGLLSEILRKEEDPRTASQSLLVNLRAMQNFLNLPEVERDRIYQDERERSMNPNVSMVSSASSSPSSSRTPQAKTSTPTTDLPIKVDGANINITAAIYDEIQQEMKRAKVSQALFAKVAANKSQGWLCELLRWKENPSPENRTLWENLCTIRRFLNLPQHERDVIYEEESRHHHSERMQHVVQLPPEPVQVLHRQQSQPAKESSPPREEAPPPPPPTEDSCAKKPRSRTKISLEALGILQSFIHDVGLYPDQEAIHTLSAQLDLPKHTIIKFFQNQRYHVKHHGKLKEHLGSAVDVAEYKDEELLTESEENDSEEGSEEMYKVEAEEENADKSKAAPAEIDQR
Nature of the assay: protein array.

Assay [2] has as its target T3, ganglioside induced differentiation associated protein 1, transcript variant 2 (human, UniProt Q8TB36 69-358).
T3 construct: on protein array; also called GDAP1
T3 sequence: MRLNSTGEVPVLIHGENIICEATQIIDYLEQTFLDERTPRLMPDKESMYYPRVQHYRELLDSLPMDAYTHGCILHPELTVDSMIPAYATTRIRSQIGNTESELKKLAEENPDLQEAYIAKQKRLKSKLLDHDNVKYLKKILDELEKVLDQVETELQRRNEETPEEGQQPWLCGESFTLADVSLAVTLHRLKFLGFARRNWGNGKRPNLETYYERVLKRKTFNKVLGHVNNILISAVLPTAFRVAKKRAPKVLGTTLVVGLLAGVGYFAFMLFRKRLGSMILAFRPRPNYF
Nature of the assay: protein array.

Assay [3] has as its target T4, nudE neurodevelopment protein 1, transcript variant 1 (human, UniProt Q9NXR1 1-335).
T4 construct: HuProt array protein, full-length recombinant from yeast; also called NDE1
T4 sequence: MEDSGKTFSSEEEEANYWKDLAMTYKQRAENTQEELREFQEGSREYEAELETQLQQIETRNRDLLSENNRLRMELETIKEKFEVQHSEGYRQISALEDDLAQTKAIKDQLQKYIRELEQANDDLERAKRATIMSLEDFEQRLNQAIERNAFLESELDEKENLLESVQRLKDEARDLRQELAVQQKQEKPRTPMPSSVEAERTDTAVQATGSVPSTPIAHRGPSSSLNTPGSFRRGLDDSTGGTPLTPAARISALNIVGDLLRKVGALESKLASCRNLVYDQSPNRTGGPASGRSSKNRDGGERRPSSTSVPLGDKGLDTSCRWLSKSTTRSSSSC

Assay [4] deals with T5, PNMA family member 5, transcript variant 2 (human, UniProt Q96PV4 1-448).
T5 construct: HuProt array protein, full-length recombinant from yeast; also called PNMA5

For assay [5], the target named is T6, phospholipase C delta 1, transcript variant 2 (human, UniProt P51178 1-756).
T6 construct: HuProt array protein, full-length recombinant from yeast; also called PLCD1
T6 sequence: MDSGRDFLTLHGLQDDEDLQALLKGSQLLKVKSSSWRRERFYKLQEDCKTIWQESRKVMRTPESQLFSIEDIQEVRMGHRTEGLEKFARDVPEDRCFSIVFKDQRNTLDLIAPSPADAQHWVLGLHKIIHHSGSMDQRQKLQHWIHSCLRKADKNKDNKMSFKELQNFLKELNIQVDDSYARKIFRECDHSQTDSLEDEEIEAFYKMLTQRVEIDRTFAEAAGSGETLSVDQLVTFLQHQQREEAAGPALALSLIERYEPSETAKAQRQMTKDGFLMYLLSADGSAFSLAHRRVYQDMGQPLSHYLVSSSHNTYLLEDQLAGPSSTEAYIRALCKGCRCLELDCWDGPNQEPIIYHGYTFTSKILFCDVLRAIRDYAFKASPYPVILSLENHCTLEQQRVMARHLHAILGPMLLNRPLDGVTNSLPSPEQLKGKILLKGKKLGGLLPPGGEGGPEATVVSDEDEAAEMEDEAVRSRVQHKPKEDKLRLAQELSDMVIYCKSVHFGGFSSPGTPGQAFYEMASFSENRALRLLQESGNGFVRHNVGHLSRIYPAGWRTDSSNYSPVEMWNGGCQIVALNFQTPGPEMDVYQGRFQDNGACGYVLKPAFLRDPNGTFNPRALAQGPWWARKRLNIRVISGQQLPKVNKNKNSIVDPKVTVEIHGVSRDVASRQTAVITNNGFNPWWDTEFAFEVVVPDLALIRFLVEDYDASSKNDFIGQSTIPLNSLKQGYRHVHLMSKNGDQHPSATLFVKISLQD

The target in assay [6] is T7, zinc finger protein 326, transcript variant 1 (human, UniProt Q5BKZ1 1-582).
T7 construct: HuProt array protein, full-length recombinant from yeast; also called ZNF326
T7 sequence: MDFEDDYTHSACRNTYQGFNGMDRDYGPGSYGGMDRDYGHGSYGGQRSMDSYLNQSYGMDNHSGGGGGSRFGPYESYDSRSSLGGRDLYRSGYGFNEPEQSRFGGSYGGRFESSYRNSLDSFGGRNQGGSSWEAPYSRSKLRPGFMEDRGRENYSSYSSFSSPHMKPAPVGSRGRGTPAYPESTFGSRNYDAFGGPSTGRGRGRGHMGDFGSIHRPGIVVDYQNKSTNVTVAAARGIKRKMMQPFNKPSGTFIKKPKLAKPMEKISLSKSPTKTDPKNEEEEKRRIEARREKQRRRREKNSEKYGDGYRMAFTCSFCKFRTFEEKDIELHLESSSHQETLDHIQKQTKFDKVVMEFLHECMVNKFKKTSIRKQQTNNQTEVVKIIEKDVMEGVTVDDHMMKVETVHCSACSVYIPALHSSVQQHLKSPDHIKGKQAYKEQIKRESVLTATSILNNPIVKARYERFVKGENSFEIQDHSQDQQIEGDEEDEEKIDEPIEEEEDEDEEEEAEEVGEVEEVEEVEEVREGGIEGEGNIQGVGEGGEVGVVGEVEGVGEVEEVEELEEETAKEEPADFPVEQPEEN

The target of assay [7] is T8, nucleosome assembly protein 1 like 1, transcript variant 1 (human, UniProt P55209 2-388).
T8 construct: HuProt array protein, full-length recombinant from yeast; also called NAP1L1
T8 sequence: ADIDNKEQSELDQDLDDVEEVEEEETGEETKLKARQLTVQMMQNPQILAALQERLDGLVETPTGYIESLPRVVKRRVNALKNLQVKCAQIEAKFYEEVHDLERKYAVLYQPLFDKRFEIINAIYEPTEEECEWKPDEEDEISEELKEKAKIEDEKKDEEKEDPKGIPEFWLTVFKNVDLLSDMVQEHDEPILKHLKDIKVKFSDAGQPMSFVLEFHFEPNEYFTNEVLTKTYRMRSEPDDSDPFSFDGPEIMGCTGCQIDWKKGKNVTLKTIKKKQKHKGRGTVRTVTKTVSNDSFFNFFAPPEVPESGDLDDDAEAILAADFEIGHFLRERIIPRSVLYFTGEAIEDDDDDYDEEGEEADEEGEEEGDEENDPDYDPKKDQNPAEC

For assay [8], the target named is T9, TruB pseudouridine synthase family member 1 (human, UniProt Q8WWH5 2-349).
T9 construct: HuProt array protein, full-length recombinant from yeast; also called TRUB1
T9 sequence: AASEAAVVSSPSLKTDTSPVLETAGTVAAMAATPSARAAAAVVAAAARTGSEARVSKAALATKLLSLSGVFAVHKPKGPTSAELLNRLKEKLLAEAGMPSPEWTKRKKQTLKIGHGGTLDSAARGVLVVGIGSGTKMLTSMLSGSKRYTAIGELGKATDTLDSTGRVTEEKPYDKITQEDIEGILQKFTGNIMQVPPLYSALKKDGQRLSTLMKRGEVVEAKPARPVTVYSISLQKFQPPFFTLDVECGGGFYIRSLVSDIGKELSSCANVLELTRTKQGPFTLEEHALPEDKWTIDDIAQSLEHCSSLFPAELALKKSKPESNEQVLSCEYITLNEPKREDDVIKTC

In assay [9] the target is T10, phospholipid scramblase 4, transcript variant X4 (human, UniProt Q9NRQ2 1-329).
T10 construct: HuProt array protein, full-length recombinant from yeast; also called PLSCR4
T10 chain: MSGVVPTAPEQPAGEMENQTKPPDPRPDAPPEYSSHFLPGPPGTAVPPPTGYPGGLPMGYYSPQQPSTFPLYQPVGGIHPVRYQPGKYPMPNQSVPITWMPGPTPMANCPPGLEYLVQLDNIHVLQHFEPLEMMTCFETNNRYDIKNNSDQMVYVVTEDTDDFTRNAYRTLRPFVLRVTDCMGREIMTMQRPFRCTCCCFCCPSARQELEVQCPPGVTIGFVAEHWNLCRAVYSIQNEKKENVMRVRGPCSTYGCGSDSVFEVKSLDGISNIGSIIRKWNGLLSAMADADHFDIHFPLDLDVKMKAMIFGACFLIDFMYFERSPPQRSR

The next assay concerns the target T11, LN608403.1_frag (human).
T11 construct: HuProt array protein; labelled _frag
T11 chain: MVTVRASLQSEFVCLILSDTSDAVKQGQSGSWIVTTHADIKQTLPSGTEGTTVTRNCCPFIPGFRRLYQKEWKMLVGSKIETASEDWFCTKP

The target in assay [10] is T12, JPX transcript, XIST activator (human).
T12 construct: HuProt array protein; labelled _frag
T12 chain: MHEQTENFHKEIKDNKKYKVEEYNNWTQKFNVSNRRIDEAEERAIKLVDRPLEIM

T5 sequence (Q96PV4 other isoform, or with tags, fused parts or gaps mutant limits assumed): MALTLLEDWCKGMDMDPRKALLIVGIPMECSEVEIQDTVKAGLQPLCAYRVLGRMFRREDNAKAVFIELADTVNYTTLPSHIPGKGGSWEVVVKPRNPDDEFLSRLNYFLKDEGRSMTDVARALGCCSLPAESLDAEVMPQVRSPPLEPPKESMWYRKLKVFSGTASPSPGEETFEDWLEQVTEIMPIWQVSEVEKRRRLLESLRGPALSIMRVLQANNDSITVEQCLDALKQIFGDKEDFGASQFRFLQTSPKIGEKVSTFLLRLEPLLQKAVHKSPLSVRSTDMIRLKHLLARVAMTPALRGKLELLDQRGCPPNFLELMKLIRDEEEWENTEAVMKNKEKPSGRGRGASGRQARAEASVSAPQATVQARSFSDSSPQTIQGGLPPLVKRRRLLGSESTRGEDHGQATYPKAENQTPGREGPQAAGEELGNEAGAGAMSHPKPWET
T1 sequence (P17098 whole entry): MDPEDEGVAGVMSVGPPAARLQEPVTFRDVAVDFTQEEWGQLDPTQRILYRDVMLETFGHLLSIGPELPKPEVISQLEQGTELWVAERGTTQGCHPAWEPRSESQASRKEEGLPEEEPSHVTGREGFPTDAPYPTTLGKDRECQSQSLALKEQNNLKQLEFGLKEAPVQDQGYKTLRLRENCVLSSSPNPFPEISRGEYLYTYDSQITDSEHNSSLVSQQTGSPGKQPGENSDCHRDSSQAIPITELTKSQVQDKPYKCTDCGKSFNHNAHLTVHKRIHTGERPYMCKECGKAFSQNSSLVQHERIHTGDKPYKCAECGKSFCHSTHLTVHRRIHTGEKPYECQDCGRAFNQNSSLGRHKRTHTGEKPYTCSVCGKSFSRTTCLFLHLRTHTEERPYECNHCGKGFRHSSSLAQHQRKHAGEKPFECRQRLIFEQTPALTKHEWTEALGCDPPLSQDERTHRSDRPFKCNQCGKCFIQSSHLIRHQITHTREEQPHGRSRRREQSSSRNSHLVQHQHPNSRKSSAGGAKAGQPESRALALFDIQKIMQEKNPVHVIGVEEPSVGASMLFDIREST

B1: TBRE1017 (antibody, V domains shown)
VH: QVQLVQSGAEVKKPGASVKVSCKASGYNFRDYYMHWVRQAPGQGLEWMGWINPNSGGTISAQNFQGRVTMTRDTSISTAYMEVNSLRSDDTAVYYCAVGMVTDGFEIWGQGTLVTVSS
VL: PYELTQPPSVSVSPGQTARITCSGDALPNENAFWYQQKPGQAPVLVIYEDIKRPSGIPERFSGSSSGTTVTLTISGVQAEDEADYYCQSVDITSTWVFGGGTKLTVLG
notes: VH/VL only
Consider B1, for which the binding result (with zinc finger protein 8; in assay [1]; in assay [2]) was “binds” in each case.

B2: TCER1002 (antibody, V domains shown)
VH: QVQLQESGPGLVKPSETLSLSCTVSGASMNNYYWSWIRQSAGKGLEWIGRIYSSGDTDYNPSLKTRVTMSIDTSKNQFSLNLDSVTAADTATYYCARSFYDTLFYFENWGQGTLVTVSS
VL: DIQMTQSPSTLSASVGDRVTITCRASQSISVWLAWYQQKPGKAPKLLIYKASTLEAGVPSRFSGSGSGTEFSLTISGLQPDDFGTYFCQHYDSYPWTFGQGTKVEMK
notes: detected with anti-human IgG Fc
B2: the binding result in [3] is “binds”.

B3: TBRE1039 (antibody, V domains shown)
VH: PVQLVQSGAEVKKPGSSVKVSCKASGGTFSSYAISWVRQAPGQGLEWMGGIIPIFGTANYAQKFQGRVTITADESTSTAYMELSSLRSEDTAVYYCARENWNSAGTTEWFDPWGQGTLVTVSS
VL: PYVLTQPPSVSVAPGKTARITCGGNNIGSKSVHWYQQKPGQAPVLVIYYDSDRPSGIPERFSGSNSGNTATLTISRVEAGDEADYYCQVWDSSSDHYVVFGGGTKLTVLG
notes: as for B2
Take B3: the binding result in [4], in assay [5] and in [6] was “binds” throughout.

B4: TCER1001 (antibody, V domains shown)
VH: EVQLVESGGGLVQPGRSLRLSCAASGFTFDDYAMHWVRQAPGKGLEWVSGISWNSGSIGYADSVKGRFTISRDNAKNSLYLQMNSLRAEDTALYYCAKDLLGFRDQRNYYGMDVWGQGTTVTVSS
VL: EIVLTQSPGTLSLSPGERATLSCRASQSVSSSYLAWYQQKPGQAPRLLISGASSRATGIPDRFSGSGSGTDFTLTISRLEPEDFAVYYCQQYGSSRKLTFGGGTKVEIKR
notes: as for B2
For B4, the binding result in [7] is “binds”.

B5: TCER1003 (antibody, V domains shown)
VH: QITLKESGPTLVKPTQTLTLTCTFSGFSLTTTDVGVGWIRQPPGKALEWLTIIYWDDDERYSPSLKSRLTITKDTSKNQVVLSMTNMDPVDTATYYCARVYSTKWDFDYWGQGTLVTVSS
VL: VSSELTQDPAVSVALGQTVRITCQGDSLRRYYVSWYRQKPGEAPVVVIYGKNNRPSWIPDRLSGSSSGNTASLTITGAQAEDEADYYCCSRDSSGNPWVFGGGTKLTVLG
notes: as for B2
B5: the binding result in assay [8] and in [9] was “binds” throughout.

B6: TBRE1045 (antibody, V domains shown)
VH: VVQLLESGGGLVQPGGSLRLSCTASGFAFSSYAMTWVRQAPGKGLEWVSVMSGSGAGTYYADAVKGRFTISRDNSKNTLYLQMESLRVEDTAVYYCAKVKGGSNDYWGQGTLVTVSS
VL: PYVLTQPPSVSVAPGQTARITCGGNNIGSKSVHWYQQKPGQAPVMVVYADRERPSGIPERLSGSNFGNTATLTISRVEAGDEADYYCQVWDSNNDHREVFGGGTKLTVLG
notes: as for B2
In the case of B6, the binding result (in the assay with LN608403.1_frag; in assay [10]) was “binds” each time.
